Results reported in PMC12987686 (RSC pharmaceutics, 2025).
Peptide text beside a SMILES is read from it.

Experiments:
[1] = cited from earlier work
[2] = in vivo; conditions: CD1, mouse, iv, total radioactivity
[3] = system: CD1 mice with myocardial infarction; experiment: in vivo; parameters: species or system mouse; conditions: mouse
[4] = in vivo; parameters: species or system mouse; conditions: CD1, mouse, iv, total radioactivity
[5] = in vivo; parameters: species or system mouse; conditions: CD1, mouse, iv, total radioactivity; remark: listed apart in the source
[6] = system: healthy CD1 mice; experiment: in vivo; parameters: species or system mouse; conditions: mouse
[7] = Stability in the final formulation by analytical rad-HPLC; format: physicochemical; conditions: final formulation 10/30/60 v/v/v ethanol/1.0 M sodium acetate/saline, room temperature, mean ± SD, n = 4
[8] = system: CD1 mice with myocardial infarction; conditions: mouse, in vivo

## CC(C)(C)n1ncc(OCc2ccc(COCC[18F])cc2)c(Cl)c1=O [[^18F]F-flurpiridaz]
[1]
  first-pass extraction fraction: 94%

## CC(C)C[C@H](NC(=O)[C@H](Cc1c[nH]cn1)NC(=O)[C@H](Cc1c[nH]c2ccccc12)NC(=O)[C@@H]1CCCN1C(=O)[C@H](C)NC(=O)CN1CCN(CC(=O)O)CCN(CC(=O)O)CC1)C(=O)N[C@@H](CO)C(=O)N[C@@H](CO)C(=O)N[C@@H](CCC(N)=O)C(=O)N[C@@H](Cc1ccc(O)cc1)C(=O)N[C@@H](CO)C(=O)N[C@@H](CCCNC(=N)N)C(=O)N[C@H](C(=O)O)[C@@H](C)O [[^68Ga]Ga-NOTA-CTP, metal not drawn] (HELM PEPTIDE1{[O=C(O)CN1CCN(CC(=O)O)CCN(CC(=O)[*:2])CC1].A.P.W.H.L.S.S.Q.Y.S.R.T}$$$$V2.0; N-terminus and C-terminus assumed)
[2]; SUV Cecum
  SUV at 2 h: 2.36 ± 2.24 SUV
[2]; SUV Heart
  SUV at 2 h: 0.02 ± 0.006 SUV
[2]; SUV Lung
  SUV at 2 h: 0.04 ± 0.02 SUV
[2]; SUV Pancreas
  SUV at 2 h: 0.05 ± 0.06 SUV
[3]
  SUV Heart: 0.03 ± 0.02
[4]; 2.29 MBq, SUV heart
  SUV at 2 h: 0.03 ± 0.02 SUV
[4]; SUV Cecum
  SUV at 2 h: 2.28 ± 3.64 SUV
[4]; SUV Lung
  SUV at 2 h: 0.04 ± 0.04 SUV
[4]; SUV Pancreas
  SUV at 2 h: 0.05 ± 0.04 SUV
[5]; 2.29 MBq, SUV heart
  SUV at 1 h: 0.04 ± 0.04 SUV
  SUV at 2 h: 0.02 ± 0.01 SUV
[5]; 2.29 MBq, SUV kidneys
  SUV: 2.64 ± 0.89 SUV
  SUV at 1 h: 0.92 ± 0.68 SUV
  SUV at 2 h: 0.1 SUV
[5]; 2.29 MBq, SUV liver
  SUV: 1.42 ± 0.49 SUV
  SUV at 1 h: 0.69 ± 0.32 SUV
  SUV at 2 h: 0.14 SUV
[5]; 2.29 MBq, SUV muscle
  SUV: 0.36 ± 0.12 SUV
  SUV at 1 h: 0.18 ± 0.13 SUV
  SUV at 2 h: 0.19 ± 0.18 SUV
[5]; 2.29 MBq, SUV urinary bladder
  SUV: 7.51 ± 3.49 SUV
  SUV at 1 h: 10.6 ± 6.1 SUV
[5]; SUV urinary bladder
  SUV at 2 h: 9.02 ± 8.59 SUV
[6]
  SUV in left ventricle (LV) vs right ventricle (RV): SUV in LV was lower than the RV
  time of clearance from the blood: ≤ 30 min
[7]; 0 min post-synthesis
  radiochemical purity in the formulation: 98.78 ± 1.08%
[7]; 2 h post-synthesis
  radiochemical purity in the formulation: 92.52 ± 3.66%
[8]
  time of clearance from the blood: ≤ 30 min

## [15OH2] [^15O-water]
[1]
  first-pass extraction fraction: ~ 100%

## [82Rb] [^82Rb]
[1]
  first-pass extraction fraction: ~ 65%
